# From IntAct's records for PubMed 11102519
# B1: Transmembrane 4 L6 family member 1 (Homo sapiens), P30408 (parent)
# chain: MCYGKCARCIGHSLVGLALLCIAANILLYFPNGETKYASENHLSRFVWFFSGIVGGGLLMLLPAFVFIGLEQDDCCGCCGHENCGKRCAMLSSVLAALIGIAGSGYCVIVAALGLAEGPLCLDSLGQWNYTFASTEGQYLLDTSTWSECTEPKHIVEWNVSLFSILLALGGIEFILCLIQVINGVLGGICGFCCSHQQQYDC
# partner: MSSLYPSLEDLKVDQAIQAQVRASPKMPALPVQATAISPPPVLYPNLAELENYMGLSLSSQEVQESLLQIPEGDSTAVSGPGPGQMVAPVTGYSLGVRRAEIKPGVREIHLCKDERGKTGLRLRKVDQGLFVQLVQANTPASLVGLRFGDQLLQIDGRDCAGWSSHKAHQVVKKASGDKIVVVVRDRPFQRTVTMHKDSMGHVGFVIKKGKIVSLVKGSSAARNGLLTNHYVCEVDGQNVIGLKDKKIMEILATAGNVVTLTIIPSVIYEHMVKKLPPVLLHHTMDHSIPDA
# Variants of: B1
# Conditions: with sdcb2_human SDCBP2, Q9H190
row,Variant,effect of a mutation on the interaction
1,C202G,disrupting interaction strength
